From paper PMC8225817, “The mineralocorticoid receptor leads to increased expression of EGFR and T-type calcium channels that support HL-1 cell hypertrophy” come the findings set out here.

For data set [1], the target named is T1, rhSP1 (specificity protein 1) (human, UniProt P08047 1-785). As to the kind of experiment: EMSA; 10 mM Tris, 50 mM KCl, 5 mM MgCl2, 1 mM DTT, 5% glycerol, 1 mg/ml poly(dI-dC), 5 fmol probe, 30 min room temperature; pH not stated. Particulars: protein: commercial; label: biotin. (In general: A gel shift assay detects complexes by their altered migration in electrophoresis.)
T1 sequence (P08047 whole entry): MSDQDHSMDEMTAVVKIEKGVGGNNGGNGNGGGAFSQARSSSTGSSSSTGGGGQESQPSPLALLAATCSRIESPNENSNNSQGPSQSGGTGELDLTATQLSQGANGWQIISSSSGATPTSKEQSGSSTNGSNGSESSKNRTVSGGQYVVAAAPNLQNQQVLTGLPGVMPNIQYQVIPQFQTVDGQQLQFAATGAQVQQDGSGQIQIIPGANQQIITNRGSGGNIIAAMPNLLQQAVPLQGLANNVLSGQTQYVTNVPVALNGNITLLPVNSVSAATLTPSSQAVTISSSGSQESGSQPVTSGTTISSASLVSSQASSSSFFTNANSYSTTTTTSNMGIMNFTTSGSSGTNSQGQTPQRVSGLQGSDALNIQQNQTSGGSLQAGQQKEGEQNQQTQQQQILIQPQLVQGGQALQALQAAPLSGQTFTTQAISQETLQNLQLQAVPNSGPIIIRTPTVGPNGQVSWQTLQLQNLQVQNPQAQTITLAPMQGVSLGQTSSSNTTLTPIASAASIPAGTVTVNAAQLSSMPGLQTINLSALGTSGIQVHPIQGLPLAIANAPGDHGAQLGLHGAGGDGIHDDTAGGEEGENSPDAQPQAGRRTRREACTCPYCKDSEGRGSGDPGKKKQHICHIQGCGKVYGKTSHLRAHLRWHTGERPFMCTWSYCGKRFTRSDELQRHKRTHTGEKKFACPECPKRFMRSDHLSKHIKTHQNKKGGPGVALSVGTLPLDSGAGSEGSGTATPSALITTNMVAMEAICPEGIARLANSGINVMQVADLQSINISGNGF

Data set [2] concerns the target T1, rhSP1 (specificity protein 1). As to the kind of experiment: EMSA; same as -216G/-191C; 10 mM Tris, 50 mM KCl, 5 mM MgCl2, 1 mM DTT, 5% glycerol, 1 mg/ml poly(dI-dC), 5 fmol probe, 30 min room temperature; pH not stated. The following applies: protein: commercial; label: biotin.

B1: mMRE (-216G/-191C) (dsDNA)
DNA 1: GCAGCAGCCTCCGCCCCCCGCACGGTGTGAGCGCCCGCCGCGGCCGAGGCGGCCGGAGTCCCGAG
DNA 2: CTCGGGACTCCGGCCGCCTCGGCCGCGGCGGGCGCTCACACCGTGCGGGGGGCGGAGGCTGCTGC
As to B1, the binding result in data set [1] is on record as “binds”.

B2: mMRE (-216G/-191A) (dsDNA)
DNA 1: GCAGCAGCCTCCGCCCCCCGCACGGTGTGAGCGCCCGACGCGGCCGAGGCGGCCGGAGTCCCGAG
DNA 2: CTCGGGACTCCGGCCGCCTCGGCCGCGTCGGGCGCTCACACCGTGCGGGGGGCGGAGGCTGCTGC
Turning to B2, in data set [2], the binding result is recorded as “binds”.
